Experimental findings from article PMC2199365 are described below.

The assay concerns the target nascent 77FtsQTAG27 (E. coli) (UniProt P06136). Briefly: cross-linking.
Chain of UniProt P06136 (P06136 1-77): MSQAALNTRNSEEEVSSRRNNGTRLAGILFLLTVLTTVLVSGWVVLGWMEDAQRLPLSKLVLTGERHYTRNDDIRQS

B1: purified signal recognition particle (SRP: Ffh and 4.5S RNA) (complex)
chain: MFDNLTDRLSRTLRNISGRGRLTEDNVKDTLREVRMALLEADVALPVVREFINRVKEKAVGHEVNKSLTPGQEFVKIVRNELVAAMGEENQTLNLAAQPPAVVLMAGLQGAGKTTSVGKLGKFLREKHKKKVLVVSADVYRPAAIKQLETLAEQVGVDFFPSDVGQKPVDIVNAALKEAKLKFYDVLLVDTAGRLHVDEAMMDEIKQVHASINPVETLFVVDAMTGQDAANTAKAFNEALPLTGVVLTKVDGDARGGAALSIRHITGKPIKFLGVGEKTEALEPFHPDRIASRILGMGDVLSLIEDIESKVDRAQAEKLASKLKKGDGFDLNDFLEQLRQMKNMGGMASLMGKLPGMGQIPDNVKSQMDDKVLVRMEAIINSMTMKERAKPEIIKGSRKRRIAAGCGMQVQDVNRLLKQFDDMQRMMKKMKKGGMAKMMRSMKGMMPPGFPGR
Regarding B1, the concentration of SRP at which cross-linking saturated turned out to be 0.3 µM.
